{
  "source": "the supplement of paper PMC5998384",
  "key": {"HeLa Kyoto [1]": {"system": "HeLa Kyoto", "assay": "melting temperature (median over replicates), in situ; higher = more thermally stable"}, "HeLa Kyoto [2]": {"system": "HeLa Kyoto", "assay": "solubility in G1/S (NP-40 vs SDS abundance) (log2 ratio); higher = more soluble", "settings": "cell cycle stage: G1/S"}, "HeLa Kyoto [3]": {"system": "HeLa Kyoto", "assay": "solubility change mitosis vs G1/S (difference of NP-40 vs SDS log2 ratios) (log2 ratio difference); higher = more soluble in mitosis"}, "HeLa Kyoto [4]": {"system": "HeLa Kyoto", "assay": "thermal stability score vs G1/S (z-score of summed log2 fold changes over temperatures); higher = more thermally stable than in G1/S"}, "[5]": {"settings": "cell cycle stage: early G1 (4.5 h after nocodazole release)"}},
  "data": [
    {"sequence": "MVPALRYLVGACGRARGLFAGGSPGACGFASGRPRPLCGGSRSASTSSFDIVIVGGGIVGLASARALILRHPSLSIGVLEKEKDLAVHQTGHNSGVIHSGIYYKPESLKAKLCVQGAALLYEYCQQKGISYKQCGKLIVAVEQEEIPRLQALYEKGLQNGVPGLRLIQQEDIKKKEPYCRGLMAIDCPHTGIVDYRQVALSFAQDFQEAGGSVLTNFEVKGIEMAKESPSRSIDGMQYPIVIKNTKGEEIRCQYVVTCAGLYSDRISELSGCTPDPRIVPFRGDYLLLKPEKCYLVKGNIYPVPDSRFPFLGVHFTPRMDGSIWLGPNAVLAFKREGYRPFDFSATDVMDIIINSGLIKLASQNFSYGVTEMYKACFLGATVKYLQKFIPEITISDILRGPAGVRAQALDRDGNLVEDFVFDAGVGDIGNRILHVRNAPSPAATSSIAISGMIADEVQQRFEL [L2HGDH]", "values": [
      {"measurement": "melting temperature", "setting": "HeLa Kyoto [1]; cell cycle stage: G1/S", "value": 53.9, "unit": "°C"},
      {"measurement": "melting temperature", "setting": "HeLa Kyoto [1]; cell cycle stage: mitosis", "value": 53.6, "unit": "°C"},
      {"measurement": "solubility in G1/S (log2)", "setting": "HeLa Kyoto [2]", "value": 0.0471},
      {"measurement": "solubility change mitosis (log2)", "setting": "HeLa Kyoto [3]", "value": -0.123},
      {"measurement": "thermal stability score", "setting": "HeLa Kyoto [4]; [5]", "value": 0.996},
      {"measurement": "thermal stability score", "setting": "HeLa Kyoto [4]; cell cycle stage: mitosis", "value": 0.751}
    ]},
    {"sequence": "MAAQRIRAANSNGLPRCKSEGTLIDLSEGFSETSFNDIKVPSPSALLVDNPTPFGNAKEVIAIKDYCPTNFTTLKFSKGDHLYVLDTSGGEWWYAHNTTEMGYIPSSYVQPLNYRNSTLSDSGMIDNLPDSPDEVAKELELLGGWTDDKKVPGRMYSNNPFWNGVQTNPFLNGNVPVMPSLDELNPKSTVDLLLFDAGTSSFTESSSATTNSTGNIFDELPVTNGLHAEPPVRRDNPFFRSKRSYSLSELSVLQAKSDAPTSSSFFTGLKSPAPEQFQSREDFRTAWLNHRKLARSCHDLDLLGQSPGWGQTQAVETNIVCKLDSSGGAVQLPDTSISIHVPEGHVAPGETQQISMKALLDPPLELNSDRSCSISPVLEVKLSNLEVKTSIILEMKVSAEIKNDLFSKSTVGLQCLRSDSKEGPYVSVPLNCSCGDTVQAQLHNLEPCMYVAVVAHGPSILYPSTVWDFINKKVTVGLYGPKHIHPSFKTVVTIFGHDCAPKTLLVSEVTRQAPNPAPVALQLWGKHQFVLSRPQDLKVCMFSNMTNYEVKASEQAKVVRGFQLKLGKVSRLIFPITSQNPNELSDFTLRVQVKDDQEAILTQFCVQTPQPPPKSAIKPSGQRRFLKKNEVGKIILSPFATTTKYPTFQDRPVSSLKFGKLLKTVVRQNKNHYLLEYKKGDGIALLSEERVRLRGQLWTKEWYIGYYQGRVGLVHTKNVLVVGRARPSLCSGPELSTSVLLEQILRPCKFLTYIYASVRTLLMENISSWRSFADALGYVNLPLTFFCRAELDSEPERVASVLEKLKEDCNNTENKERKSFQKELVMALLKMDCQGLVVRLIQDFVLLTTAVEVAQRWRELAEKLAKVSKQQMDAYESPHRDRNGVVDSEAMWKPAYDFLLTWSHQIGDSYRDVIQELHLGLDKMKNPITKRWKHLTGTLILVNSLDVLRAAAFSPADQDDFVI [SH3BP4]", "values": [
      {"measurement": "melting temperature", "setting": "HeLa Kyoto [1]; cell cycle stage: G1/S", "value": 50.4, "unit": "°C"},
      {"measurement": "melting temperature", "setting": "HeLa Kyoto [1]; cell cycle stage: mitosis", "value": 49.2, "unit": "°C"},
      {"measurement": "solubility in G1/S (log2)", "setting": "HeLa Kyoto [2]", "value": -0.0978},
      {"measurement": "solubility change mitosis (log2)", "setting": "HeLa Kyoto [3]", "value": -0.133},
      {"measurement": "thermal stability score", "setting": "HeLa Kyoto [4]; [5]", "value": 0.727},
      {"measurement": "thermal stability score", "setting": "HeLa Kyoto [4]; cell cycle stage: mitosis", "value": 0.411}
    ]},
    {"sequence": "MSGRSKRESRGSTRGKRESESRGSSGRVKRERDREREPEAASSRGSPVRVKREFEPASAREAPASVVPFVRVKREREVDEDSEPEREVRAKNGRVDSEDRRSRHCPYLDTINRSVLDFDFEKLCSISLSHINAYACLVCGKYFQGRGLKSHAYIHSVQFSHHVFLNLHTLKFYCLPDNYEIIDSSLEDITYVLKPTFTKQQIANLDKQAKLSRAYDGTTYLPGIVGLNNIKANDYANAVLQALSNVPPLRNYFLEEDNYKNIKRPPGDIMFLLVQRFGELMRKLWNPRNFKAHVSPHEMLQAVVLCSKKTFQITKQGDGVDFLSWFLNALHSALGGTKKKKKTIVTDVFQGSMRIFTKKLPHPDLPAEEKEQLLHNDEYQETMVESTFMYLTLDLPTAPLYKDEKEQLIIPQVPLFNILAKFNGITEKEYKTYKENFLKRFQLTKLPPYLIFCIKRFTKNNFFVEKNPTIVNFPITNVDLREYLSEEVQAVHKNTTYDLIANIVHDGKPSEGSYRIHVLHHGTGKWYELQDLQVTDILPQMITLSEAYIQIWKRRDNDETNQQGA [USP39]", "values": [
      {"measurement": "melting temperature", "setting": "HeLa Kyoto [1]; cell cycle stage: G1/S", "value": 51.4, "unit": "°C"},
      {"measurement": "melting temperature", "setting": "HeLa Kyoto [1]; cell cycle stage: mitosis", "value": 51.9, "unit": "°C"},
      {"measurement": "solubility in G1/S (log2)", "setting": "HeLa Kyoto [2]", "value": -0.4},
      {"measurement": "solubility change mitosis (log2)", "setting": "HeLa Kyoto [3]", "value": 0.178},
      {"measurement": "thermal stability score", "setting": "HeLa Kyoto [4]; [5]", "value": -0.187},
      {"measurement": "thermal stability score", "setting": "HeLa Kyoto [4]; cell cycle stage: mitosis", "value": -0.193}
    ]}
  ]
}
